Target: CD46 (UniProt P15529)
Experiment: Kd, method not stated (column head 'Kd (Oleks)')

Chain of UniProt P15529 (P15529 35-343 limits assumed): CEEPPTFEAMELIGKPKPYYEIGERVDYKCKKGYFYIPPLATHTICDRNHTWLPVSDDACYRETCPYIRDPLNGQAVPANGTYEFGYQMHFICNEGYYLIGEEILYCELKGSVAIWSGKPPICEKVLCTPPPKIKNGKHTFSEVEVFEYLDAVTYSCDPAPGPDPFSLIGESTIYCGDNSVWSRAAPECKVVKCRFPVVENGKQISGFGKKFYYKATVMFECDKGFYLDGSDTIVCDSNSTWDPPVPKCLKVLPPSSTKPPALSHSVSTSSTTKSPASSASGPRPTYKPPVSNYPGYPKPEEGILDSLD

Ad35 knob A8: Ile192Val Ile256Val
Kd: 13.7 nM

— patent publication US20220380776A1
